Laboratory results reported in publication PMC5865128 (Nature Communications, 2018).

T1: FLAG-tagged mouse BAFF 3-mer, H242A (mouse, UniProt Q9WU72 127-309, H242A)
T1 construct: mouse BAFF (Tnfsf13b), soluble form; also called FLAG-mBAFF H242A; source: 293 T cells, transient transfection, supernatant, size fractionated by gel filtration (3-mer fractions 13 + 14)
T1 sequence (looked up): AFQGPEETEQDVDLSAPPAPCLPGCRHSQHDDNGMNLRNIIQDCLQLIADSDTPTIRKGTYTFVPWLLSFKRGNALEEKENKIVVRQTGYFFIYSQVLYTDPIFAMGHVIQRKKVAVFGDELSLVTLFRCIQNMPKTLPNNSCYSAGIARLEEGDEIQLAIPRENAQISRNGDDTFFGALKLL

T2: FLAG-tagged mouse BAFF 3-mer, E247K (mouse, UniProt Q9WU72 127-309, E247K)
T2 construct: mouse BAFF (Tnfsf13b), soluble form; also called FLAG-mBAFF E247K; source: 293 T cells, transient transfection, supernatant, size fractionated by gel filtration (3-mer fractions 13 + 14)
T2 sequence (looked up): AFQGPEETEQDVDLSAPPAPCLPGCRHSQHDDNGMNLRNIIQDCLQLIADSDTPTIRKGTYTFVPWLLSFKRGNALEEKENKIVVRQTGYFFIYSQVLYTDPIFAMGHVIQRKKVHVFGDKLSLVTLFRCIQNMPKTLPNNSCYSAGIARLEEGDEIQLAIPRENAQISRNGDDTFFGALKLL


Columns and labels:
[1] = target: naturally cleaved, untagged human BAFF H218A (human); test: SEC; concentrated 293 T supernatants of naturally cleaved BAFF fractionated on Superdex 200 Increase; fractions blotted with anti-BAFF antibodies; oligomer seen in the fractions
[2] = target: naturally cleaved, untagged human BAFF E223K (human); test: as above
[3] = target: His-tagged human BAFF (60-mer) (human) (UniProt Q9Y275); test: SEC; purified His-tagged BAFF alone on Superdex 200 Increase, against molecular weight standards
Fc-human BAFF, wild type = target: T3, Fc-human BAFF, wild type (human, UniProt Q9Y275); test: ELISA; Fc-hBAFF (WT or H218A) coated at 1 µg/ml; soluble Fc-BAFF (WT or H218A) titrated, then biotinylated Fab of belimumab (50 µl of 100 ng/ml); streptavidin-peroxidase detection; relative affinity; settings: both partners purified
T3 construct: human BAFF (TNFSF13B); called an intrinsically cross-linked BAFF; also called Fc-hBAFF WT; Fc-BAFF

[4] = target: T1, FLAG-tagged mouse BAFF 3-mer, H242A; test: ELISA; direct binding: BAFFR-Fc, BCMA-Fc or TACI-Fc (human or mouse) adsorbed at 1 µg/ml; FLAG-tagged BAFF 3-mers of the corresponding species 1 h at 37 °C in PBS, 0.4% milk, 0.05% Tween-20; biotinylated anti-FLAG detection; settings: both partners purified
[5] = target: T2, FLAG-tagged mouse BAFF 3-mer, E247K; test: as above; settings: both partners purified
[6] = target: T4, FLAG-tagged mouse BAFF 3-mer, wild type (mouse, UniProt Q9WU72 127-309); test: as above; settings: both partners purified
T4 construct: mouse BAFF (Tnfsf13b), soluble form; also called FLAG-mBAFF WT; mBAFF; source: 293 T cells, transient transfection, supernatant, size fractionated by gel filtration (3-mer fractions 13 + 14)

[7] = target: T5, FLAG-tagged human BAFF 3-mer, H218A (human, UniProt Q9Y275 134-285, H218A); test: as above; settings: both partners purified
T5 construct: human BAFF (TNFSF13B), soluble form; also called FLAG-hBAFF H218A; source: 293 T cells, transient transfection, supernatant, size fractionated by gel filtration (3-mer fractions 15 + 16)

[8] = target: T6, FLAG-tagged human BAFF 3-mer, E223K (human, UniProt Q9Y275 134-285, E223K); test: as above; settings: both partners purified
T6 construct: human BAFF (TNFSF13B), soluble form; also called FLAG-hBAFF E223K; source: 293 T cells, transient transfection, supernatant, size fractionated by gel filtration (3-mer fractions 15 + 16)

binding result [4]	binding result [5]	binding result [6]	Molecule	also measured
			naturally cleaved, untagged human BAFF H218A (ligand)	stoichiometry N [1]: 3
			naturally cleaved, untagged human BAFF E223K (ligand)	stoichiometry N [2]: 3
			His-tagged human BAFF (60-mer) (from UniProt Q9Y275 134-285) (ligand)	stoichiometry N [3]: 60
			Fab fragment of belimumab (Fab, V domains shown, heavy-chain part of the Fab; as the light chain of m24; also called belimumab Fab; source: papain digestion of belimumab, flowthrough of Protein A, size-fractionated (Superdex 200 Increase)) VH: QVQLQQSGAEVKKPGSSVRVSCKASGGTFNNNAINWVRQAPGQGLEWMGGIIPMFGTAKYSQNFQGRVAITADESTGTASMELSSLRSEDTAVYYCARSRDLLLFPHHALSPWGRGTMVTVSS VL: SSELTQDPAVSVALGQTVRVTCQGDSLRSYYASWYQQKPGQAPVLVIYGKNNRPSGIPDRFSGSSSGNTASLTITGAQAEDEADYYCSSRDSSGNHWVFGGGTELTVL	binding result (Fc-human BAFF, wild type): binds
binds	binds	binds	mouse BAFFR-Fc (Fc fusion, UniProt Q9D8D0 1-71, looked up, mouse BAFF receptor (BAFFR); also called mBAFFR-Fc) MGARRLRVRSQRSRDSSVPTQCNQTECFDPLVRNCVSCELFHTPDTGHTSSLEPGTALQPQEGSALRPDVA	
binds	binds	binds	MAQQCFHSEYFDSLLHACKPCHLRCSNPPATCQPYCDPSVTSSVKGTYT (Fc fusion, UniProt O88472 1-49, looked up, mouse BCMA) [mouse BCMA-Fc]	
binds	binds	binds	mouse TACI-Fc (Fc fusion, UniProt Q9ET35 1-128, looked up, mouse TACI) MAMAFCPKDQYWDSSRKSCVSCALTCSQRSQRTCTDFCKFINCRKEQGRYYDHLLGACVSCDSTCTQHPQQCAHFCEKRPRSQANLQPELGRPQAGEVEVRSDNSGRHQGSEHGPGLRLSSDQLTLYC	
			human BCMA-Fc (Fc fusion, UniProt Q02223 1-54, looked up, human BCMA (TNFRSF17); also called TNFRSF17) MLQMAGQCSQNEYFDSLLHACIPCQLRCSSNTPPLTCQRYCNASVTNSVKGTNA	binding result [7]: binds; binding result [8]: binds
